{"source": "paper PMC3127752", "key": {"[1]": {"system": "T1, SO2426 (Shewanella oneidensis MR-1), ORF:71750797", "T1 sequence": "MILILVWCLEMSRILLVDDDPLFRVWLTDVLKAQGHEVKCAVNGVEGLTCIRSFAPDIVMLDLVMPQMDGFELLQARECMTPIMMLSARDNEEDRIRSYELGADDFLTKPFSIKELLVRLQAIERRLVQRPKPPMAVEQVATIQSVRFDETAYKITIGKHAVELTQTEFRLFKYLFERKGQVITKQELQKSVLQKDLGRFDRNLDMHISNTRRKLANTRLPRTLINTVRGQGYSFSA", "experiment": "EMSA", "settings": "DIG-11-dUTP incorporated (dTTP:DIG-dUTP 1:6 mix), 0.5X EMSA buffer [5 mM Tris-Cl pH 8.0, 75 mM KCl, 0.05 mM DTT, 0.05 mM EDTA, 6% glycerol], 5 mM MgCl2, 20 mM acetyl phosphate, 0.2 ug/ul poly(dI:dC)"}, "[2]": {"target": "T2, SO2426sh (Shewanella oneidensis MR-1) (UniProt Q8EEF6)", "T2 sequence": "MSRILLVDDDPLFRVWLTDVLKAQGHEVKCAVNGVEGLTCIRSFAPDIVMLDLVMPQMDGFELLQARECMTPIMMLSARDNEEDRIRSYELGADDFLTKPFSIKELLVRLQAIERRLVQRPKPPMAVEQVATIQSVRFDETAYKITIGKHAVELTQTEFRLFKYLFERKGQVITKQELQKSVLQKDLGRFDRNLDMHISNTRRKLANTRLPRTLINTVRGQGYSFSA", "experiment": "EMSA", "settings": "DIG-11-dUTP incorporated (dTTP:DIG-dUTP 1:6 mix), 0.5X EMSA buffer [5 mM Tris-Cl pH 8.0, 75 mM KCl, 0.05 mM DTT, 0.05 mM EDTA, 6% glycerol], 5 mM MgCl2, 20 mM acetyl phosphate, 0.2 ug/ul poly(dI:dC)"}}, "data": [{"sequence": "TTCGTCGTTGTAGTGAACCTGTAACAGCAAATCAGACGGAAAAATTTCTATTTAGCAACACAATGGAATGACTTACACGGCA (double strand) [so3030 upstream 83-bp probe]", "values": [{"measurement": "binding", "setting": "[1]", "value": "binds"}, {"measurement": "binding", "setting": "[2]", "value": "binds"}]}]}
